B1: FLAG-sortilin ICD+TMD (receptor)
chain: SAPDYKDDDDKNSVPIILAIVGLMLVTVVAGVLIVKKYVCGGRFLVHRYSVLQQHAEANGVDGVDALDTASHTNKSGYHDDSDEDLLE
notes: written as the form after propeptide cleavage
B2: FLAG-sortilin C783A (receptor)
chain: SAPDYKDDDDKGEDEECGRVRDFVAKLANNTHQHVFDDLRGSVSLSWVGDSTGVILVLTTFHVPLVIMTFGQSKLYRSEDYGKNFKDITDLINNTFIRTEFGMAIGPENSGKVVLTAEVSGGSRGGRIFRSSDFAKNFVQTDLPFHPLTQMMYSPQNSDYLLALSTENGLWVSKNFGGKWEEIHKAVCLAKWGSDNTIFFTTYANGSCKADLGALELWRTSDLGKSFKTIGVKIYSFGLGGRFLFASVMADKDTTRRIHVSTDQGDTWSMAQLPSVGQEQFYSILAANDDMVFMHVDEPGDTGFGTIFTSDDRGIVYSKSLDRHLYTTTGGETDFTNVTSLRGVYITSVLSEDNSIQTMITFDQGGRWTHLRKPENSECDATAKNKNECSLHIHASYSISQKLNVPMAPLSEPNAVGIVIAHGSVGDAISVMVPDVYISDDGGYSWTKMLEGPHYYTILDSGGIIVAIEHSSRPINVIKFSTDEGQCWQTYTFTRDPIYFTGLASEPGARSMNISIWGFTESFLTSQWVSYTIDFKDILERNCEEKDYTIWLAHSTDPEDYEDGCILGYKEQFLRLRKSSMCQNGRDYVVTKQPSICLCSLEDFLCDFGYYRPENDSKCVEQPELKGHDLEFCLYGREEHLTTNGYRKIPGDKCQGGVNPVREVKDLKKKCTSNFLSPEKQNSKSNSVPIILAIVGLMLVTVVAGVLIVKKYVAGGRFLVHRYSVLQQHAEANGVDGVDALDTASHTNKSGYHDDSDEDLLE
notes: also called C783A mutant

Key:
[1] = biological target: the molecule itself; experiment: MG-132, anti-FLAG immunoprecipitation, non-reducing western blot
Method: FLAG-sortilin Full and ECD+TMD forms homodimers and multimers. Empty vector was used as control. […] MG-132 increased FLAG-sortilin ICD+TMD in a time and concentration-dependent manner. […] Monomers, homodimers and multimers are abbreviated as MO, D and MU, respectively. IB, immunoblotting.
Cells or EVs were lysed in IP lysis buffer. Anti-FLAG M2 antibody (5 μg) or mouse IgG (5 lig, R&D Systems, Cat#MAB002, Lot# IX2415091) were incubated with Dynabeads with Protein G (Thermo Fisher Scientific Inc., Cat#10004D) by rotation for overnight at 4° C. Cell lysate was incubated for 4 hours at 4° C. under rotating conditions. The bead-antibody-protein complex was washed with PBS 3 times. Then, Laemmli buffer was added to the precipitates for SDS-PAGE.

[2] = biological target: the molecule itself; experiment: non-reducing western blot, HEK293 cells and EVs
Source text: Next, the intermolecular disulfide bond was examined in the intracellular domain. Since sortilin has only one cysteine (Cys⁷⁸³) in the intracellular domain, the cysteine was expected to form an intermolecular disulfide bond for dimerization in the intracellular domain. Cys⁷⁸³ was replaced by alanine (C783A) in 6×His-sortilin ICD+TMD and FLAG-sortilin Full (FIG. 5A). […] The homodimers of low molecular weight were mainly transported to EVs, while homodimers of high molecular weight and multimers were mainly not transported to EVs (FIG. 5D). […] Since Cys⁷⁸³ was reported to be palmitoylated (22), the connection between palmitoylation and intermolecular disulfide bond was studied by incubating FLAG-sortilin HEK293 cells with an inhibitor of palmitoylation, 2-fluoropalmitic acid (2-FPA) (22), which increased only homodimers of lower molecular size in the cells (FIG. 5E).
Cells, EVs and the supernatant of culture medium were lysed with IP lysis buffer (Thermo Fisher Scientific Inc., Cat#87787) containing protease inhibitor (Roche Diagnostics, Cat#04693159001). Protein concentration was measured using the bicinchoninic acid (BCA) method (Thermo Fisher Scientific Inc., Cat#23225). Laemmli buffer (Boston Bioproduct; non-reducing, Cat#BP-110NR; reducing, Cat#BP-111R) was added to the lysate, and boiled at 95° C. for 5 minutes.

| Protein | binding result [1] | binding result [2] |
| --- | --- | --- |
| B1 | binds |  |
| B2 |  | binds |
